Test [1] concerns the target KPNB1 HEAT (importin subunit beta-1, HEAT repeat) (human) (UniProt Q14974). In words: fluorescence polarisation; competition: unlabelled peptide in serial dilution against the protein domain (master mix at four times the KD) with its FITC-labelled probe peptide; 50 mM KPO4 or NaPO4 pH 7.5; Ki calculated from IC50.
Test [2] deals with TLN1 PTB (talin-1, phosphotyrosine binding-like domain) (human) (UniProt Q9Y490). The test is described as above.
Test [3] concerns the target MDM2 SWIB (E3 ubiquitin-protein ligase MDM2, SWIB domain) (human) (UniProt Q00987). Described as above.
The target in test [4] is KPNA4 ARM, MBP‐tagged domain, for affinity measurements (human). Description: fluorescence polarisation; competition on MBP-tagged KPNA4 ARM: unlabelled peptide in serial dilution displaces FITC-Myc 320-328 (probe for the major pocket) or FITC-NCOR2 1307-1322 (probe for the minor pocket); 50 mM KPO4 pH 7.5; triplicates. On the technique in general: In fluorescence polarisation assays a small probe gives low polarisation when free and higher when bound to something large.

Test [5] deals with MDM2 SWIB, cleaved from the His‐GST tag, for affinity measurements (human). In words: fluorescence polarisation; competition: unlabelled peptide in serial dilution displaces a FITC-labelled probe peptide from the bait domain (master mix with protein at four times the KD of the probe, 10 nM probe, 2 mM DTT); 50 mM KPO4 or NaPO4 pH 7.5; triplicates; probe for KEAP1 Kelch: FITC-NFE2L1 228-243, other probes in Dataset EV6.

Test [6] concerns the target CLTC (clathrin heavy chain 1, Clathrin-propeller domain) (human) (UniProt Q00610). Description: fluorescence polarisation; competition: unlabelled peptide in serial dilution against the protein domain (master mix at four times the KD) with its FITC-labelled probe peptide; 50 mM KPO4 or NaPO4 pH 7.5; Ki calculated from IC50.
Test [7] has as its target TLN1 PTB (talin-1, phosphotyrosine binding-like domain) (human) (UniProt Q9Y490). In words: fluorescence polarisation; direct saturation binding: protein in serial dilution, FITC-labelled probe peptide fixed (master mix 10 nM probe, 2 mM DTT); 50 mM KPO4 or NaPO4 pH 7.5; quadratic fit.
The target in test [8] is KPNA4 ARM (importin subunit alpha-3, armadillo repeat domain) (human) (UniProt O00629). Described as above.
Test [9] concerns the target KEAP1 Kelch domain, MBP-tagged (human) (UniProt Q14145). In words: fluorescence polarisation; competition: unlabelled peptide in serial dilution against FITC-labelled probe peptide and protein (master mix with protein at four times the KD), 50 mM KPO4 pH 7.5; sigmoidal dose-response fit, KI.
Test [10] deals with KEAP1 Kelch (kelch-like ECH-associated protein 1, Kelch domain) (human) (UniProt Q14145). Description: fluorescence polarisation; competition: unlabelled peptide in serial dilution against the protein domain (master mix at four times the KD) with its FITC-labelled probe peptide; 50 mM KPO4 or NaPO4 pH 7.5; Ki calculated from IC50.
The target in test [11] is KPNB1 HEAT (importin subunit beta-1, HEAT repeat) (human) (UniProt Q14974). Description: fluorescence polarisation; direct saturation binding: protein in serial dilution, FITC-labelled probe peptide fixed (master mix 10 nM probe, 2 mM DTT); 50 mM KPO4 or NaPO4 pH 7.5; quadratic fit.

Where no end group is shown, it is not given here. [ ]: non-standard residue; d: D form. The star is where a group is joined. FITC = O=C1OC2(c3ccc(O)cc3Oc3cc(O)ccc32)c2ccc(NC(=S)*)cc21; pT = C[C@@H](OP(=O)(O)O)[C@H](N)C(=O)O

B1: NUP153 1220-1234 peptide with an extra C-terminal Y (peptide)
peptide: Ac-NPPVATFVFGQSSNPY-NH2
In the case of B1, in [1], the IC50 was 49 µM and the Ki was 11 µM.

B2: Integrin beta-3 763-778 peptide (peptide)
peptide: AKWDTANNPLYKEATS-NH2
Consider B2, for which, in test [2], the IC50 is 1430 µM and the Ki was 480 µM.

B3: RNF115 69-84 peptide (peptide)
peptide: THFAELWGHLDHTMFF
Take B3: in [3], the IC50 is 9 µM.

B4: NKX2‐5_(192–207) K194R mutant peptide, synthetic, P52952 192-207 (peptide)
peptide: KCRRQRQDQTLELVGL
Take B4: the fold loss of affinity against the wild-type peptide in test [4] was 10 fold.

B5: RNF115_(69–84) peptide, synthetic (peptide)
peptide: THFAELWGHLDHTMFF
In [5], B5 gave a Ki of 0.17 µM.

B6: GTSE1 645-660 peptide (peptide)
peptide: Ac-LIDLPLIDFCDTPEAHY
Turning to B6, in [6], the IC50 is 97 µM and the inhibitory constant (Ki) was 39 µM.

B7: MITF 256-271 peptide, Y265C (peptide)
peptide: Ac-YVSGNLIDLCGNQGLP
Consider B7, for which, in [6], the half-inhibitory concentration (IC50) was 220 µM and the Ki was 100 µM.

B8: NYAP1 542-557 peptide (peptide)
peptide: VGPLTPLWTYPATAAG-NH2
For the molecule B8, in [2], the IC50 was 62 µM and the Ki was 20 µM.

B9: FITC-PIP5K1C 640-655 probe peptide (peptide)
peptide: {FITC}-FPTDERSWVYSPLHYS-NH2
As for B9, the Kd in [7] came out at 0.15 µM.

B10: GTSE1 645-660 peptide, phosphothreonine (peptide)
peptide: Ac-LIDLPLIDFCD[pT]PEAHY
Consider B10, for which, in test [6], the IC50 is 87 µM and the Ki is 34 µM.

B11: KIAA1671 600-615 peptide (peptide)
peptide: TPEDDRSFQTVWATVF
Regarding B11, in [3], the IC50 is 73 µM and the Ki is 1.76 µM.

B12: RANBP3 11-26 peptide (peptide)
peptide: Ac-AYAPPVFVFQKDKGQK-NH2
B12: in test [1], the IC50 is 2200 µM.

B13: FITC-NCOR2 1307-1322 probe peptide (peptide)
peptide: {FITC}-PKRTYDMMEGRVGRAI
In [8], B13 returned a Kd of 0.23 µM.

B14: TREF1 332-347 peptide (peptide)
peptide: YMQHLQEQQQQQMHLQ
With B14, the Ki in [9] came to 162 µM. Moreover, in test [10], the IC50 was 490 µM and the Ki is 162 µM.

B15: ATF5 128-143 peptide (peptide)
peptide: PPLPPPPLPPAPSLPY
As for B15, the Ki in test [9] and in [10] was 1470 µM each time. For the same molecule, the IC50 in test [10] is 4430 µM.

B16: NUMB 616-630 peptide with an added N-terminal G (peptide)
peptide: GFEAQWAALENKSKQR
As to B16, in test [3], the IC50 is 130 µM.

B17: FITC-NUP153 1223-1232 probe peptide (peptide)
peptide: {FITC}-VATFVFGQSS-NH2
Take B17: the Kd in [11] came to 106 µM.

B18: PIP5K1C 640-655 peptide, unlabelled (peptide)
peptide: FPTDERSWVYSPLHYS-NH2
Regarding B18, in test [2], the IC50 is 0.42 µM and the Ki was 0.066 µM.

B19: TPTE 112-125 peptide (peptide)
peptide: DLIFTDSKLYIPLE-NH2
With B19, in test [2], the IC50 is 15 µM and the Ki was 4.9 µM.

B20: FITC-Myc 320-328 probe peptide (peptide)
peptide: {FITC}-PAAKRVKLD
As for B20, the Kd in test [8] worked out at 0.03 µM.

B21: MITF 256-271 peptide (peptide)
peptide: Ac-YVSGNLIDLYGNQGLP
Take B21: in test [6], the IC50 is 150 µM and the Ki was 63 µM.

By IC50 is commonly meant the concentration needed to halve the response being measured. One may read the Ki as the dissociation constant of the complex between target and ligand, obtained from inhibition or displacement. Usually Kd stands for a measure of binding affinity in units of concentration. Low values mean tighter binding, high ones weaker binding.

The record behind these values is publication PMC8769072, “Proteome‐scale mapping of binding sites in the unstructured regions of the human proteome” (Molecular Systems Biology, 2022).
